The target in this test is F-actin from rabbit skeletal muscle, stabilised by phalloidin (rabbit, UniProt P68135 1-377). Kind of test: co-sedimentation; 10 uM phalloidin-stabilized F-actin mixed with increasing Tpm (0 to 5.5-6 uM; up to almost 40 uM for Tpm1.12); 30 mM Hepes-Na pH 7.3, 200 mM NaCl; 40 min at 25 °C; 100,000 x g for 40 min; SDS-PAGE of pellet and supernatant; K50% = Tpm concentration at which actin is half-saturated. The settings on record: both partners purified.

B1: Tropomyosin isoform Tpm1.7 with Ala-Ser N-terminal extension (natural protein)
chain: not shown
notes: Ala-Ser N-terminal extension that mimics natural N-terminal acetylation; cytoplasmic HMW isoform Tpm1.7 of the TPM1 gene (~284 residues), exons 1a2b, 6a, 9d; Alpha-helical coiled-coil dimer; source: E. coli C41(DE3), purified (anion exchange, HiTrap QHP)
In the case of B1, the K50% came to 0.4 µM.

B2: Tropomyosin isoform Tpm4.2 (natural protein)
chain: not shown
notes: cytoplasmic LMW isoform Tpm4.2 of the TPM4 gene (~247 residues), exons 1b, 9d; an N-terminal extension is stated only for the HMW isoforms; source: E. coli C41(DE3), purified (anion exchange, HiTrap QHP); reduced with DTT before experiments
As to B2, the K50% came to 1.07 µM.

B3: Tropomyosin isoform Tpm1.12 (natural protein)
chain: not shown
notes: cytoplasmic LMW isoform Tpm1.12 of the TPM1 gene (~247 residues; exon 9c three residues shorter than 9d), exons 1b, 9c; has Cys-154; no N-terminal extension; source: E. coli C41(DE3), purified (anion exchange, HiTrap QHP); reduced with DTT before experiments
The molecule B3 registered a K50% of 14.9 µM.

The values above are taken from article PMC8152229, “Structural and Functional Peculiarities of Cytoplasmic Tropomyosin Isoforms, the Products of TPM1 and TPM4 Genes” (International Journal of Molecular Sciences, 2021).
